Among the data in US20220089784A1 (University of California, published 2022) are Kd values, retold here.

The target of one test is T1, BoNT/B1 (Clostridium botulinum, UniProt P10844 2-1291).
T1 sequence: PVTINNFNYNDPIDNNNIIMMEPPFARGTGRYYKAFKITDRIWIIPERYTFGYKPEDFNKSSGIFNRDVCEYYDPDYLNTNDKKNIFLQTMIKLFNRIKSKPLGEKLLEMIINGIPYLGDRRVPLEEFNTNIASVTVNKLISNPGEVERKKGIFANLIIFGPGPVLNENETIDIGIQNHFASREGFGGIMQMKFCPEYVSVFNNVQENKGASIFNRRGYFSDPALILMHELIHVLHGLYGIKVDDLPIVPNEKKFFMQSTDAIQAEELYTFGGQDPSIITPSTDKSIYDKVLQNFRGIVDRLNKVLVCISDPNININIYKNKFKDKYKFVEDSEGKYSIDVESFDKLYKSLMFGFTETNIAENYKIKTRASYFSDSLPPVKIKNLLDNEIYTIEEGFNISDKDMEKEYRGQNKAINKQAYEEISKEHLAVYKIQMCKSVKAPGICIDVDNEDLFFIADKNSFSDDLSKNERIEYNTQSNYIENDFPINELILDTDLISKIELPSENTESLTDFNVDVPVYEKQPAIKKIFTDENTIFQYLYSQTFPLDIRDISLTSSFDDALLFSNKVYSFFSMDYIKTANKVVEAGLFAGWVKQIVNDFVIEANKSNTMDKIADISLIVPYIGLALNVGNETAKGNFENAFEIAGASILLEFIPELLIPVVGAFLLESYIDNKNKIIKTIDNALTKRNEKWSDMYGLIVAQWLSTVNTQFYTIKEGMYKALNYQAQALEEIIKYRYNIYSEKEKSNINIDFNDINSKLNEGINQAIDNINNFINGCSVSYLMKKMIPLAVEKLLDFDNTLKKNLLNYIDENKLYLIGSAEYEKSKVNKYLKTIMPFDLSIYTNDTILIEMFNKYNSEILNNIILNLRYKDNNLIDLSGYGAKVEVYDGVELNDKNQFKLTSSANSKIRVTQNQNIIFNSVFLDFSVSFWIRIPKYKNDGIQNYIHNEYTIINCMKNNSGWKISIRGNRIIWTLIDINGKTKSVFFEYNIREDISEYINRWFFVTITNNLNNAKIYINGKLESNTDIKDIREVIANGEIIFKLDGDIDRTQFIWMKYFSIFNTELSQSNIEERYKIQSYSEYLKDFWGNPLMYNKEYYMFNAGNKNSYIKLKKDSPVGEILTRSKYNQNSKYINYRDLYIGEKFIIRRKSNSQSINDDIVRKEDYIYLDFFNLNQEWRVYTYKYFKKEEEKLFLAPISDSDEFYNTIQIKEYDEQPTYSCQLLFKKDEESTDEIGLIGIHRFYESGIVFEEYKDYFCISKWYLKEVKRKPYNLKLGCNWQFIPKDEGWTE
Put plainly: yeast scFv FACS.

Test [1] concerns the target T2, BoNT/B light chain (recombinant) (Clostridium botulinum, UniProt P10844 1-441).
T2 sequence: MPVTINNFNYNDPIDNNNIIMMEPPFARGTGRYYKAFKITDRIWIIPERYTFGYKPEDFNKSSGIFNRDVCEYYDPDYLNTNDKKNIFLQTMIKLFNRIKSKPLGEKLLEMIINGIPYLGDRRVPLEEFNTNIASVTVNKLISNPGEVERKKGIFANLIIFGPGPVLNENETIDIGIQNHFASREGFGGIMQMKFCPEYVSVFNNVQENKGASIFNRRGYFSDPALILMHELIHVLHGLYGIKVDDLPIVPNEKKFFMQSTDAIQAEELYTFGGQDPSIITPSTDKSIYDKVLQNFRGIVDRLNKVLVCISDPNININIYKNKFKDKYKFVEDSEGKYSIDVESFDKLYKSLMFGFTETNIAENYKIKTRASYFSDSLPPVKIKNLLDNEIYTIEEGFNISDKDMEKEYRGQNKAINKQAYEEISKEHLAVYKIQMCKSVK
Kind of test: yeast scFv FACS.

The target in test [2] is T3, BoNT/F1 (proteolytic BoNT/F) (Clostridium botulinum, UniProt A7GBG3 1-1278).
T3 sequence: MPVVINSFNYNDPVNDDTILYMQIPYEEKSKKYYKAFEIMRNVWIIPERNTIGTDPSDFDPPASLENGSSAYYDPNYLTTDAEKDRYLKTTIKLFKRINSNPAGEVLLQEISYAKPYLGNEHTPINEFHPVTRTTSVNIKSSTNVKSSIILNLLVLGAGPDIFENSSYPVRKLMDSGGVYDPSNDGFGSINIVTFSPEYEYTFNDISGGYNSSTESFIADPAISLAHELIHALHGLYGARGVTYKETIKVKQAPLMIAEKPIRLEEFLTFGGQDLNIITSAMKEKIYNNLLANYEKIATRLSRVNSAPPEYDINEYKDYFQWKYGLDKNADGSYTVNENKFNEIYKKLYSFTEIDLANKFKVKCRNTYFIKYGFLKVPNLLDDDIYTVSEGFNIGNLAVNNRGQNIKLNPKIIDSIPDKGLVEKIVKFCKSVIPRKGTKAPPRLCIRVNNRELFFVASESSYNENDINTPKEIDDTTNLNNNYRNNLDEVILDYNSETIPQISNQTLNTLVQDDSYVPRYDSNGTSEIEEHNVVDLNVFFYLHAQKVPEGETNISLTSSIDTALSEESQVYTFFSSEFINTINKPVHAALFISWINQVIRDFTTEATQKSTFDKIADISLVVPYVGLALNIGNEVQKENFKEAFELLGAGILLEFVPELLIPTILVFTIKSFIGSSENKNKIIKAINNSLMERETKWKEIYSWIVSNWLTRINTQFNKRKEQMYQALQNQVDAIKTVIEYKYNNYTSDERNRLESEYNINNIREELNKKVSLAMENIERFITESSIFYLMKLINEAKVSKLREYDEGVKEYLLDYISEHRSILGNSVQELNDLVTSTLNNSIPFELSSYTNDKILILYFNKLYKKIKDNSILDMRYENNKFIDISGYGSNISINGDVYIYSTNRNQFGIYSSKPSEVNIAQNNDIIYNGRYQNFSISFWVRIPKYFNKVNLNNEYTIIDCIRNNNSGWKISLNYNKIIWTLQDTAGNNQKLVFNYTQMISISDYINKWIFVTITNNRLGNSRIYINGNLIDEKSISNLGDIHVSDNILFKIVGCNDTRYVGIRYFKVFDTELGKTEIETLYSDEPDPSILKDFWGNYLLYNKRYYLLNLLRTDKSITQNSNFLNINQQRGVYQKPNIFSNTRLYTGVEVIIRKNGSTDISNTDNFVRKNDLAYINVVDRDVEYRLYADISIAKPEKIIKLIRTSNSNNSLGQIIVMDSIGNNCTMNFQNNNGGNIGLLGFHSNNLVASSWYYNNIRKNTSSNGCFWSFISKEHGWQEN
Kind of test: IgG.

B1: 19D22 scFv (scFv)
scFv: QIQLLQSGAELVRPGTSVKMSCKAAGYPFTSYWMGWVKQRPGHGLEWIGDIYPGGPYTNYNEKFKGKATLTADTSSSTAYMQFSSLTSEDSAIYYCALYGQVGSYAMDYWGQGTSVTVSSVDLKSGGSTSGSGKPGSGEGSSGSARQIVLTQSPAIMSASPGEKVTMTCSASSSVSYMYWYQQKPGSSPRLLIYDTSNLASGVPVRFSGSGSGTSYSLTISRMEAEDAATYYCQQWSSYPPITFGAGTKLEIK
notes: mouse
In the case of B1, the Kd with BoNT/B1 was found to be 7.39 nM; in test [1], 21.2 nM.

B2: 6F5 IgG (antibody, V domains shown)
VH: EVQLVQSGGNLVQPGGSLRLSCAATGPIGSHWMTWVRQAPGQGLEWVANINLDGTEKFYVDSVKGRFTVSRDNRKSSVFLQMNNLRVDDTAVYYCARLQWGGYNGWLSPWGQGTLVTVSS
VL: DIEMTQSPPSLSASVGDRVSLTCRASEYIGTSLNWYQQKPGKAPKLLIYAASALHSGVPSRFSGSGSGTDFTLTISGLQPEDFATYYCQQANDLPLTFGGGTKLEIK
B2 returned a dissociation constant (Kd) in test [2] of 0.66 nM.

B3: 16B3 scFv (scFv)
scFv: EVQLQQSGPELVKPGASVKITCKASGYTFTDNNMDWVKQSHGKSLEWIGDINPNNGGSIYNQKFKGKASLTLDKSSSTAYMELRSLTSEDTAVYYCARWGYYGSLAYWGQGTLVTVSSVDLKSGGSTSGSGKPGSGEGSSGSARQNVLTQSPAIMSASPGEKVTMTCSASSSVSSRYLHWYQQKSGASPKLWIYGTSNLASGVPARFSGSGSGTSYSLTISSVEAEDAATYYCQQYHSDPLTFGGGTKLEIK
notes: mouse
Turning to B3, the dissociation constant (Kd) with BoNT/B1 amounted to 1.01 nM; in test [1] it was 0.84 nM.

B4: 18E5 scFv (scFv)
scFv: EVQLQESGPELVKPGASVKISCKASGYTFTDHNMDWVKQSLGKSLEWIGDINPNNGGAVYNQNFKGKATLTVDKSSSTAYMELRSLTSEDTAVYYCARYGYYGYFDYWGQGTTLTVSSVDLKSGGSTSGSGKPGSGEGSSGSARQIVLTQSPAIMSASPGEKVTMTCRASSSVSSSYLHWYQQKPGSSPKLWIYSTSNLASGVPARFSGSGSGTSYSLTISSVEAEDAATYYCQQYDSSPSTFGAGTKLEIK
notes: mouse
As for B4, the Kd with BoNT/B1 came to 1.33 nM; in test [1], 1 nM.

B5: 6F3 IgG (antibody, V domains shown)
VH: QVQLQQSGPEVVKPGASVKISCKASGYTFADYWIGWTKQGPGHGLEWIGHIYPGGGYINYNEKFKGKATLTADMSSSTAYMQFSSLTSEDSAIYYCARVTMVESGDWYFDVWGTGTTVTVSS
VL: ENVLTQSPAIMSASLGEEITLTCSASSSVSYMHWYQQKSGTSPKLWIYYTSNLASGVPARFSGSGSGTSYSLTISSMEAEDAATYYCQQWSSNPYTFGGGTKLEIK
notes: IgG from scFv V genes
Take B5: binding in test [2] was characterised by a dissociation constant (Kd) of 2.39 nM.

B6: 6F4 IgG (antibody, V domains shown)
VH: EVQLQESGPELVKPGASVKISCKTSGYTFTDYYMNWVKQSHGKSLEWIGDINPNNGGATYNQKFKGKATLTVDKSSRTLYMELRSLTSEDSAVYHCACGPYFFDFWGQGTTLTVSS
VL: QIVLTQSPATMSASPGEKVTITCSASSSVNYMHWYQQKPGSSPKLWIYDTSSLAPGVPARFSGSGSGTSYSLTISSMEAEDAASYFCHQWSSYPYTFGGGTKLEIK
notes: IgG from scFv V genes
The molecule B6 yielded a Kd in test [2] of 1.17 nM.

B7: 19B6 scFv (scFv)
scFv: QVQLQQSGAELVKPGASVKISCKASGYTFTDNYINWVKQRPGQGLEWIGWIHPGSGNAKYNEKFRAKATLTVDTSSNTAYMQLSSLTSEDSAVYFCARVGFRVNFDYWGQGTTLTVSSVDLKSGGSTSGSGKPGSGEGSSGSARQIVLTQSPAIMSASPGEKVTMTCSASSSLSYVHWYQQKPGSSPKPWIYATSNLVSGVPARFSGSRSGTSYSLTISSMEAEDAATYYCQQWSSYPPTFGAGTKLEIK
notes: mouse
As for B7, the equilibrium dissociation constant (Kd) with BoNT/B1 worked out at 19.7 nM; in test [1], 2.35 nM.

B8: 18A6 scFv (scFv)
scFv: EVQLQQSGPELVKPGASVKISCKASGYTFTDNYINWVKQRPGQGLEWIGWIYPGSGNTKYNEKFKGKATLTVDTSSNTAYMQLTGLASDDSAVYFCARVNFYVSWDYWGQGTSVTVSSVDLKSGGSTSGSGKPGSGEGSSGSAREIVLTQSPAIMSASPGEKVTMTCSASSSISYMHWFQQKPGMSPKRRIFDTSKLASGVPARFSGSGSGTSYSLTISSMEAEDAGTYYCHQRSSYPFTFGGGTKLELK
notes: mouse
Turning to B8, the Kd with BoNT/B1 was 14.5 nM; in test [1] it was 4.21 nM.

B9: 16D5 scFv (scFv)
scFv: EVKLVESGAELVRPGASVKLSCTPSGFNIKDDYMHWVKQRPEQGLEWIGRIDPANGNTRYAPKFQDKATLTADTSSNTAYLHLTSLTSEDTAVYYCARSYYRAWFDYWGQGTLVTVSSVDLKSGGSTSGSGKPGSGEGSSGSARQIVLTQSPATLSVTPGDSVSLSCRASQSISNNLHWYQQKSHESPRLLIKYASQSISGIPSRFSGSGSGTDFTLSINSVETEDFGMYFCQQSNSWPLTFGAGTRLEIK
notes: mouse
Consider B9, for which the Kd in the test with BoNT/B1 worked out at 7.57 nM; in test [1], 1.8 nM.

B10: 18D10 scFv (scFv)
scFv: QVQLKQSGIEVMKPGASVKLSCKASGYPFTAYWIEWVKQRPGHGLEWIGEFLPGGISTNFNEKFKGKATFSADTSSNSAYIQLNSLTTEDSAIYYCVLTGTGFDYWGQGTSVTVSSVDLKSGGSTSGSGKPGSGEGSSGSARENVLTQSPAIMSASPGEKVTMTCSASSSVSYMHWYQQKSGTSPKRWIYDTSKLASGVPARFSGSGSGTSYSLTISSMEAEDAATYYCQQWSSNPLTFGAGTKLELK
notes: mouse
For the molecule B10, the Kd turned out to be 5.97 nM with BoNT/B1 and 7.53 nM in test [1].
